{"source": "paper doi:10.1101/2025.09.04.674342", "about": "“Tandem association of CLOCK:BMAL1 complexes on DNA enables recruitment of CBP/p300 through multivalent interactions” (bioRxiv, 2025)", "key": {"[1]": {"biological_target": "BMAL1 TAD (residues 579–626) (mouse) (UniProt Q9WTL8)", "sequence (Q9WTL8 585-632)": "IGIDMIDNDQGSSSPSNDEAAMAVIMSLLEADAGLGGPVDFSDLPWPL", "test": "NMR titration; 15N-1H HSQC of 100 μM 15N BMAL1 TAD WT or L606A/L607A with stepwise additions of CBP KIX (WT or 3mut), TAZ1 or TAZ2; 25°C; 10 mM MES pH 6.5, 50 mM NaCl, 10% D2O; KD from fits of concentration-dependent CSPs, apparent"}, "[2]": {"biological_target": "BMAL1 TAD L606A/L607A (residues 579–626) (mouse) (UniProt Q9WTL8)", "sequence (Q9WTL8 585-632 L612A/L613A)": "as the sequence (Q9WTL8 585-632) above, with L28A, L29A counted along it", "test": "NMR titration; 15N-1H HSQC of 100 μM 15N BMAL1 TAD WT or L606A/L607A with stepwise additions of CBP KIX (WT or 3mut), TAZ1 or TAZ2; 25°C; 10 mM MES pH 6.5, 50 mM NaCl, 10% D2O; KD from fits of concentration-dependent CSPs, apparent"}, "[3]": {"biological_target": "human histone octamer in the nucleosome core particle (Widom 601 DNA with tandem E-boxes) (human) (UniProt P04908)", "test": "mass photometry; NCP tandem 6bp 10 nM with CLOCK:BMAL1 bHLH-PAS-AB 60 nM (1:6), 30 min at room temperature; 20 mM Tris-HCl pH 7.5, 100 mM KCl, 0.5 mM TCEP"}}, "note": "“And” between values parts separate entries of the source, which are not always exact repeats. Equal values may be shown once."}
{"substance": "CBP KIX Y650A/A654Q/Y658A (3mut) (from UniProt P45481 586-672) (domain or fragment)", "values": [{"measurement": "Kd", "setting": "[1]", "result": 160, "unit": "µM"}]}
{"substance": "CBP KIX domain (residues 586–672) (from UniProt P45481 586-672) (domain or fragment)", "values": [{"measurement": "Kd", "setting": "[2]", "result": 190, "unit": "µM"}]}
{"substance": "CLOCK:BMAL1 bHLH-PAS-AB heterodimer (from UniProt O08785 26-395; Q9WTL8-4 62-441) (complex)", "values": [{"measurement": "stoichiometry N", "setting": "[3]", "result": "2 and 3"}]}
